Measurements from US20070117924A1, “Biologically active material conjugated with biocompatible polymer with 1:1 complex, preparation method thereof and pharmaceutical composition comprising the same” (priority 2003, published 2007).

How the values were obtained:
[1] = Half-life of mPEG-Hz-PTH in rats (cAMP in plasma); conditions: male rats, 100 ug/kg intravenous; FIG. 20
UMR-10^6 cell line = assay: In vitro biological activity of mPEG-PTH conjugate: c-AMP synthesized in UMR-10^6 cell line; format: cell-based; conditions: concentration of 10-8 mole, FIG. 19
[2] = tested on: White Blood Cell (WBC) count; assay: White blood cell (WBC) count of PEG-G-CSF-treated rats; format: in vivo, Sprague-Dawley rats; conditions: 100 ug/kg into tail vein, blood 0-96 hrs, FIG. 9
[3] = Half life of PEG-G-CSF conjugate in rats (serum activity by cell XTT assay); conditions: 100 ug/kg intravenous, FIG. 8

Molecule: mPEG(5000)-Hz-PTH
- detection after administration (not detected) [1]: not detected after 15 mins
- activity retained, % of unreacted PTH (c-AMP synthesized) (UMR-10^6 cell line): 40%

Molecule: mPEG(12000)-Hz-PTH
- time after administration at which detected [1]: 1 h
- activity retained, % of unreacted PTH (c-AMP synthesized) (UMR-10^6 cell line): 30%

Molecule: mPEG(20000)-Hz-PTH
- time after administration at which detected [1]: 2 h
- activity retained, % of unreacted PTH (c-AMP synthesized) (UMR-10^6 cell line): 20%

Molecule: unreacted PTH [reference compound]
- detection after administration (not detected) [1]: not detected after 15 mins

B1: mPEG(20000)-Hz-G-CSF (conjugate, UniProt P09919 31-207, looked up)
Granulocyte …: TPLGPASSLPQSFLLKCLEQVRKIQGDGAALQEKLVSECATYKLCHPEELVLLGHSLGIPWAPLSSCPSQALQLAGCLSQLHSGLFLYQGLLQALEGISPELGPTLDTLQLDVADFATTIWQQMEELGMAPALQPTQGAMPAFASAFQRRAGGVLVASHLQSFLEVSYRVLRHLAQP
modifications: mPEG 20 kDa via hydrazine linker
- WBC counts compared with native G-CSF and Neulasta [2]: higher WBC counts than both native G-CSF and Neulasta™
- half-life compared to native G-CSF [3]: much longer half-life compared to native G-CSF
